Values quoted from earlier work in publication PMC10404681, “Intrinsic catalytic properties of histone H3 lysine-9 methyltransferases preserve monomethylation levels under low S-adenosylmethionine” (The Journal of Biological Chemistry, 2023).

Biological target: histone H3 peptide (Homo sapiens) (UniProt P68431)

EHMT1/EHMT2 heterodimer, sequence (Q9H9B1 2-1298): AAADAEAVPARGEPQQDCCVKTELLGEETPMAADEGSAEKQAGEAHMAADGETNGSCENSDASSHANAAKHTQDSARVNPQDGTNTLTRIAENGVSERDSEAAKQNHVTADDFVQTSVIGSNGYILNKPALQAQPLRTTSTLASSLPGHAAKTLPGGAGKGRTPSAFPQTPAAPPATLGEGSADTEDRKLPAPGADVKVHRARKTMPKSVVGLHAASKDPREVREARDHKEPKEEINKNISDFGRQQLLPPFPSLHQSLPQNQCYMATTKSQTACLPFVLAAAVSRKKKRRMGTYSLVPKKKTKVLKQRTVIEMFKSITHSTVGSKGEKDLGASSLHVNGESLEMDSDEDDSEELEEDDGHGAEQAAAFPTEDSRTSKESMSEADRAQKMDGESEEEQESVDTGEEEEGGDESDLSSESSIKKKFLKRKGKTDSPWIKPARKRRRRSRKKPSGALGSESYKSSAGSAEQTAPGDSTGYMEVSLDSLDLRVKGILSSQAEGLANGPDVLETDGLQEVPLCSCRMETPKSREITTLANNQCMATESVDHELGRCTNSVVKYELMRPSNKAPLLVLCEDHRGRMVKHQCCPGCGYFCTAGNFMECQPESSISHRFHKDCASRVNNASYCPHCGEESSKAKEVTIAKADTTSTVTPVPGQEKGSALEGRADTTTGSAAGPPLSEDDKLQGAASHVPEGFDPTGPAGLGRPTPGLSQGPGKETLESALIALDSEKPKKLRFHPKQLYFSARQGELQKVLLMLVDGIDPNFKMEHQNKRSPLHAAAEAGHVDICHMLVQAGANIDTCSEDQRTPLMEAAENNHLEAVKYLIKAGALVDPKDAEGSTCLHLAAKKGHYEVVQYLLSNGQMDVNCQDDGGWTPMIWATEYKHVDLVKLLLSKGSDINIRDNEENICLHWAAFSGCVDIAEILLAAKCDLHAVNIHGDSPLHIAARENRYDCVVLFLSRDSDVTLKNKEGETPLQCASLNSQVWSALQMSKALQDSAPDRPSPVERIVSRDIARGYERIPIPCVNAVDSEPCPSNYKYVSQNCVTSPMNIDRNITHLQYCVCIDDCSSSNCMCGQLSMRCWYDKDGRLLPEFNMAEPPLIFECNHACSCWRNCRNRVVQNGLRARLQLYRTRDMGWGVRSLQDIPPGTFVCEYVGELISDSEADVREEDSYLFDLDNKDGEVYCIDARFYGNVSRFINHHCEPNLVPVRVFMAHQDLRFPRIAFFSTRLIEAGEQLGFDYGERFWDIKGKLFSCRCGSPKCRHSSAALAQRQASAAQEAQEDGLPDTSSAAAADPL
EHMT1/EHMT2 heterodimer, sequence (Q96KQ7 2-1210, further chain): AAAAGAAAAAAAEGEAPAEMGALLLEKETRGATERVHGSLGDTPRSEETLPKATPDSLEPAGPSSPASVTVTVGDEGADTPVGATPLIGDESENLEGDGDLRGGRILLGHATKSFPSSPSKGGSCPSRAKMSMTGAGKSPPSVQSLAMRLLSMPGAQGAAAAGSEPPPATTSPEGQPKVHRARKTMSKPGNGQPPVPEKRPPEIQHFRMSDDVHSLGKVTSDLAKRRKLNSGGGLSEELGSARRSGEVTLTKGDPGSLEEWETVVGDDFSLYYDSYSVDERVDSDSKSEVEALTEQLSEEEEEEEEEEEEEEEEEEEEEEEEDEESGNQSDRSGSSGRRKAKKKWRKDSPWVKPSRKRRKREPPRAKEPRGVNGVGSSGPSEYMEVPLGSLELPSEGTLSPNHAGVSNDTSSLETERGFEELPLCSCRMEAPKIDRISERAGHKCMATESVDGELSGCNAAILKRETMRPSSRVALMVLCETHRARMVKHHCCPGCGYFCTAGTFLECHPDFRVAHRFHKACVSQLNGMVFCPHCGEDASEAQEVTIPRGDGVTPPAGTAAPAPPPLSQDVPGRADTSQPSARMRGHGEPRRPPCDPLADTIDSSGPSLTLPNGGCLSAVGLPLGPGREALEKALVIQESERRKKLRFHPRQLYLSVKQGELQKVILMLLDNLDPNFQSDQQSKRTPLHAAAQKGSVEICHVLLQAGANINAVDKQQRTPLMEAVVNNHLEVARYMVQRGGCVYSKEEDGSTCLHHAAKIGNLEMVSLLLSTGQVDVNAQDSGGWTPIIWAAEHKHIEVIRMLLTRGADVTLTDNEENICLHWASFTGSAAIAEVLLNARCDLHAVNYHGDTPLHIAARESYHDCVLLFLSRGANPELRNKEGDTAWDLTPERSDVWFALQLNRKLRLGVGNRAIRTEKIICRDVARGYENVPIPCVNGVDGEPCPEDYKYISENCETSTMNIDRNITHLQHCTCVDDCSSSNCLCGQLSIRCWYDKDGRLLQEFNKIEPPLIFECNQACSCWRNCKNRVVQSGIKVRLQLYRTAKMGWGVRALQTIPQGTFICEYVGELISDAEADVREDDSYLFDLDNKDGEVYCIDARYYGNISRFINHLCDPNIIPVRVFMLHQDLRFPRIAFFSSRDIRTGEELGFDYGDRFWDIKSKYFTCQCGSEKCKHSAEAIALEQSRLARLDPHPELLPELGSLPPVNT

Kd: 7.35 µM
Substance: EHMT1/EHMT2 heterodimer (from UniProt Q9H9B1)
